Test results as given in patent US20020031799A1.

Experiments:
[1] = biological target: FVIIIa (activated factor VIII) (UniProt P00451); assay: apparent Kd; 0.1 nM FVIIIa titrated with 0-5 nM FIXa, 100 µM PSPC vesicles, 5 mM CaCl2; complex read by the initial rate of FXa generation, quadratic fit
[2] = biological target: FVIIIa (activated factor VIII) (UniProt P00451)
[3] = biological target: FVIIIa (activated factor VIII) (UniProt P00451); assay: apparent Kd from FXa generation, as FIG. 1, in the absence of hirudin
[4] = biological target: FVIIIa (activated factor VIII) (UniProt P00451); assay: apparent Kd from FXa generation, as FIG. 1, in the presence of 100 nM hirudin

Sequence of UniProt P00451 (P00451 whole entry, looked up): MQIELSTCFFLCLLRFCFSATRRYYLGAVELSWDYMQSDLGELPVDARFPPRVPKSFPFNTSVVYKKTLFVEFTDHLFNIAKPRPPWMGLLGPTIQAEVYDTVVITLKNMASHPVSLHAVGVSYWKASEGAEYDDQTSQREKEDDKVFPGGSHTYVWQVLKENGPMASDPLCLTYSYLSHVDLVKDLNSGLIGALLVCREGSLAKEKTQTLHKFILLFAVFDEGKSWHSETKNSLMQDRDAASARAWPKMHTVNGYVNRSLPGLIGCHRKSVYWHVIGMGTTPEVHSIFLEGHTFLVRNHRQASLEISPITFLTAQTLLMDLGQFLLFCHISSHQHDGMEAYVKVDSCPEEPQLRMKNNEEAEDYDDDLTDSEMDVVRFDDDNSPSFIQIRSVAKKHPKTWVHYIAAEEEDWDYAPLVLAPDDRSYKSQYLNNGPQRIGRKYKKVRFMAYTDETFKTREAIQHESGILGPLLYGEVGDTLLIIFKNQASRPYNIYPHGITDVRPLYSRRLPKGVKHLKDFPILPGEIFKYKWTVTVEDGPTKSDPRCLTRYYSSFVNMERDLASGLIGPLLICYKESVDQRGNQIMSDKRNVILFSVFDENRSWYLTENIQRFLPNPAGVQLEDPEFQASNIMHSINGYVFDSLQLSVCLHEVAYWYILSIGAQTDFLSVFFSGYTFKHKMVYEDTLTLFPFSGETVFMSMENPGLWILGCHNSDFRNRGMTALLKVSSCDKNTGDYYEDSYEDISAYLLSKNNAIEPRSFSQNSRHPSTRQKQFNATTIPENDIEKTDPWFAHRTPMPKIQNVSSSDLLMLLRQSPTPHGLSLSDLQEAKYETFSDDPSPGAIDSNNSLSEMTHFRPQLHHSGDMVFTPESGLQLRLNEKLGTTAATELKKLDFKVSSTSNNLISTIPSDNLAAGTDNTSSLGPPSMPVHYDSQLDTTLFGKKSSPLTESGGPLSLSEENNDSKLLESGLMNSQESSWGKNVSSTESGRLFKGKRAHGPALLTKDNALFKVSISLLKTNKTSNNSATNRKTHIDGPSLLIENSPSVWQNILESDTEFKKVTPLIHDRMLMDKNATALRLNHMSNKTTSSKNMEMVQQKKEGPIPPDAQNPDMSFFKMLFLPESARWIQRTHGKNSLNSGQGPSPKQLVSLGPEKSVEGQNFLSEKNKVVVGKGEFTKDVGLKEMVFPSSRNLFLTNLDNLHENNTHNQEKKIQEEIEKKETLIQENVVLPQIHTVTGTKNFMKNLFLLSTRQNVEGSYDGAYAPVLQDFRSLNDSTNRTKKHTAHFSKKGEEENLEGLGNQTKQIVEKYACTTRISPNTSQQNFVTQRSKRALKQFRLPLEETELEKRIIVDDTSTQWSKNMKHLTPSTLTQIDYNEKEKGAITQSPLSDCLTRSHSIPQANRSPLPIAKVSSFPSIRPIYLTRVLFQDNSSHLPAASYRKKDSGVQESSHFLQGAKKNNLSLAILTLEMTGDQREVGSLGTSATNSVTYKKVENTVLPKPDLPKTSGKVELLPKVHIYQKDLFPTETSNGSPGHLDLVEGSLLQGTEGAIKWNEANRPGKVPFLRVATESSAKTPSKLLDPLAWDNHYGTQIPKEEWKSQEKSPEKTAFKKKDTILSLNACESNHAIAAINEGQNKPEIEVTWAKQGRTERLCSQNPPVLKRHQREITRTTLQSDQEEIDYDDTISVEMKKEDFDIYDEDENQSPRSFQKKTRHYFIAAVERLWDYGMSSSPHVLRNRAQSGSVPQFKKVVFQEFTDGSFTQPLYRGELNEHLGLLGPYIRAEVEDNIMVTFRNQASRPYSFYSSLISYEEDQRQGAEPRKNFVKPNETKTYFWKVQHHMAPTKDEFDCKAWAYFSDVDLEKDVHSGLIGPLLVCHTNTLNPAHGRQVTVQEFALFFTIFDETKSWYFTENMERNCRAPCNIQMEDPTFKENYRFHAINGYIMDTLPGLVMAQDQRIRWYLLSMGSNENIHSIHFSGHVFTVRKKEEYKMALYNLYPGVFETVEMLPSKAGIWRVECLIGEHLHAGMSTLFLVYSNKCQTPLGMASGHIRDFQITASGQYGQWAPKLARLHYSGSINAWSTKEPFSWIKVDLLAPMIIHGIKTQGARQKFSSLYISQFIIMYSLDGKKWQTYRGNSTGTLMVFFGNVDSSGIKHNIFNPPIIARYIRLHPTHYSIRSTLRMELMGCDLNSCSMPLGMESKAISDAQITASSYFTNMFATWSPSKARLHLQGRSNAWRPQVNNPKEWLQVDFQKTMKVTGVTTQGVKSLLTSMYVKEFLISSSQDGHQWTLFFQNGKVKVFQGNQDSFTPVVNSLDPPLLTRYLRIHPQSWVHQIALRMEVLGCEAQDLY

Substance | Bmax, in the absence of hirudin [2] | Bmax, in the presence of 100 nM hirudin [2] | maximum rate of FX cleavage (Bmax of FIG. 1) [2] | further results
plasma FIXa (activated purified normal human plasma Factor IX) (from UniProt P00740 47-191; P00740 227-461) (enzyme) | – | – | – | Kd [1]: 1.01 nM
R338A-FIXa (activated Factor IX with alanine at position 338) | 3.39±0.12 nM FXa/min | 3.38±0.19 nM FXa/min | 3.56±0.15 nM FXa/min | –
recombinant wt-FIXa (activated recombinant wild type Factor IX) (from UniProt P00740 47-191; P00740 227-461) (enzyme) | – | – | – | Kd [3]: 0.38 nM; Kd [4]: 0.85 nM
recombinant wt-FIXa (activated recombinant wild type Factor IX) | 1.27±0.12 nM FXa/min | 1.35±0.15 nM FXa/min | – | –
plasma FIXa (activated purified normal human plasma Factor IX) | – | – | 1.30 ± 0.10 nM/min | –
